Source: paper PMC9760430, “A stapled chromogranin A-derived peptide homes in on tumors that express αvβ6 or αvβ8 integrins” (International Journal of Biological Sciences, 2023)
Bridge positions count the residues as written; N and C are the ends. Square brackets hold non-standard residues; d marks the D form. Ends that are not written are not given here. Lys(N3) = [N-]=[N+]=NCCCC[C@H](N)C(=O)O; Pra = C#CC[C@H](N)C(=O)O

Tests used:
Conditions in all cases: both partners purified
[1] = biological target: T1, recombinant human αvβ6 integrin (human, UniProt P06756 31-1048; P18564 22-709); experiment: ELISA; competitive integrin binding assay: αvβ6-coated plates, isoDGR peptide labeled with peroxidase as probe for the integrin-binding site; Ki
T1 construct: integrin αv subunit, human; integrin β6 subunit, human; details of reagents are in the Supplemental Materials; Such bought integrins are, as I recall, soluble extracellular heterodimers; also called purified αvβ6; source: bought: Bio-Techne

[2] = biological target: T2, recombinant murine αvβ8 integrin (murine, UniProt P43406 31-1044; Q0VBD0 22-681); experiment: direct integrin binding assay (near-infrared fluorescence scan of plates); microtiter plates coated with αvβ6 or αvβ8; peptide-IRDye conjugates incubated 1 h, washed, bound fluorescence read with Odyssey CLx; EC50
T2 construct: integrin αv subunit, mouse; integrin β8 subunit, mouse; details of reagents are in the Supplemental Materials; source: bought: Bio-Techne
T2 sequence (P43406 whole entry, chain 1 of 2): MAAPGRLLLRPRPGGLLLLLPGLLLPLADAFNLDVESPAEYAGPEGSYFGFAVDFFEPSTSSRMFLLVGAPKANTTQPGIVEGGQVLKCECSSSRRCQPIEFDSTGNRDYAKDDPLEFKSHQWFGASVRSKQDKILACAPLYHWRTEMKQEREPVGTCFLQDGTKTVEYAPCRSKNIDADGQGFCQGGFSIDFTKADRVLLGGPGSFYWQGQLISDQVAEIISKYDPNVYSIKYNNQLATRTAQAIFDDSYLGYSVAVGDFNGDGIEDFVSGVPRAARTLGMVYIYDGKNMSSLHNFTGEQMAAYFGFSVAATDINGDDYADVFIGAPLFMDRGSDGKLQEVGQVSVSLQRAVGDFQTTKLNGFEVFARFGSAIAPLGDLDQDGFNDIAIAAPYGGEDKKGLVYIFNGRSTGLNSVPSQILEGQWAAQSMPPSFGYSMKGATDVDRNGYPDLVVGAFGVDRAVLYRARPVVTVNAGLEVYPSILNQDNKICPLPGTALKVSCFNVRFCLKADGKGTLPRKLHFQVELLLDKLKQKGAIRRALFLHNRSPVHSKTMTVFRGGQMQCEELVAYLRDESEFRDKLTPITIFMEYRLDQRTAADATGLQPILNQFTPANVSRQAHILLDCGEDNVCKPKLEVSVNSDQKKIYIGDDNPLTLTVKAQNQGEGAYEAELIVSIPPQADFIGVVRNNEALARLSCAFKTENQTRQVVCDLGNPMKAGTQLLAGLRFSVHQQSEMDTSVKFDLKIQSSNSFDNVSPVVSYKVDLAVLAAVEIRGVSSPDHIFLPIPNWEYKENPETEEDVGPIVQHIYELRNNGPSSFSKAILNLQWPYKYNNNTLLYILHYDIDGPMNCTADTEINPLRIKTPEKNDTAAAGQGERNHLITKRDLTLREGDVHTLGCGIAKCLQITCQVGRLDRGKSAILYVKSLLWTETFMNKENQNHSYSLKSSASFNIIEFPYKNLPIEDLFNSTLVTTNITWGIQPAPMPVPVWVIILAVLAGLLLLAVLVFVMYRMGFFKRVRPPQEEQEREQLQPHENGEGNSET
T2 sequence (Q0VBD0 whole entry, chain 2 of 2): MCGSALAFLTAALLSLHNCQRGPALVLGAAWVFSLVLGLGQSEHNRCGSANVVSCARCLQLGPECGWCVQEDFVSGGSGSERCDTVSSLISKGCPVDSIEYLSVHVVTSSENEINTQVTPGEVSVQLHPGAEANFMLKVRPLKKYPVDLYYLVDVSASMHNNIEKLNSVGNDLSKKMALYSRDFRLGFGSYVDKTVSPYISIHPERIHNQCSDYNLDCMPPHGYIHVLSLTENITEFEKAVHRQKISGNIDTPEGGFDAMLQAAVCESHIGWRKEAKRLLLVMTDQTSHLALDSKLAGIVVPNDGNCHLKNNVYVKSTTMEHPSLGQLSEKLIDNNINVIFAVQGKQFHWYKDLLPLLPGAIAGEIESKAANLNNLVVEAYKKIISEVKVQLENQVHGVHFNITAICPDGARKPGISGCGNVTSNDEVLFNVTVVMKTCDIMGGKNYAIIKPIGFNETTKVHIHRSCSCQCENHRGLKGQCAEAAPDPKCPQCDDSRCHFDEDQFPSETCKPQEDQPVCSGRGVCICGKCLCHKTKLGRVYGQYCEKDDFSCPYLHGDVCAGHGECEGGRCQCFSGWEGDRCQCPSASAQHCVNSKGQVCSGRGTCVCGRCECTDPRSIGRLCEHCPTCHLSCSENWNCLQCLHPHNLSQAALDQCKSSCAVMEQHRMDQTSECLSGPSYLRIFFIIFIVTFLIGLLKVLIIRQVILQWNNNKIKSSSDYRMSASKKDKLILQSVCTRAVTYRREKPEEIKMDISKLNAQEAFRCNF

[3] = biological target: T3, recombinant human αvβ8 integrin (human, UniProt P06756 31-1048; P26012 43-684); experiment: as above
T3 construct: integrin αv subunit, human; integrin β8 subunit, human; details of reagents are in the Supplemental Materials; also called purified αvβ8; source: bought: Bio-Techne

[4] = biological target: T1, recombinant human αvβ6 integrin; experiment: as above
[5] = biological target: T4, recombinant murine αvβ6 integrin (murine, UniProt P43406 31-1044; Q9Z0T9 22-708); experiment: as above
T4 construct: integrin αv subunit, mouse; integrin β6 subunit, mouse; details of reagents are in the Supplemental Materials; source: bought: Bio-Techne
T4 sequence (P43406 whole entry, chain 1 of 2): as the sequence (P43406 whole entry, chain 1 of 2) above
T4 sequence (Q9Z0T9 whole entry, chain 2 of 2): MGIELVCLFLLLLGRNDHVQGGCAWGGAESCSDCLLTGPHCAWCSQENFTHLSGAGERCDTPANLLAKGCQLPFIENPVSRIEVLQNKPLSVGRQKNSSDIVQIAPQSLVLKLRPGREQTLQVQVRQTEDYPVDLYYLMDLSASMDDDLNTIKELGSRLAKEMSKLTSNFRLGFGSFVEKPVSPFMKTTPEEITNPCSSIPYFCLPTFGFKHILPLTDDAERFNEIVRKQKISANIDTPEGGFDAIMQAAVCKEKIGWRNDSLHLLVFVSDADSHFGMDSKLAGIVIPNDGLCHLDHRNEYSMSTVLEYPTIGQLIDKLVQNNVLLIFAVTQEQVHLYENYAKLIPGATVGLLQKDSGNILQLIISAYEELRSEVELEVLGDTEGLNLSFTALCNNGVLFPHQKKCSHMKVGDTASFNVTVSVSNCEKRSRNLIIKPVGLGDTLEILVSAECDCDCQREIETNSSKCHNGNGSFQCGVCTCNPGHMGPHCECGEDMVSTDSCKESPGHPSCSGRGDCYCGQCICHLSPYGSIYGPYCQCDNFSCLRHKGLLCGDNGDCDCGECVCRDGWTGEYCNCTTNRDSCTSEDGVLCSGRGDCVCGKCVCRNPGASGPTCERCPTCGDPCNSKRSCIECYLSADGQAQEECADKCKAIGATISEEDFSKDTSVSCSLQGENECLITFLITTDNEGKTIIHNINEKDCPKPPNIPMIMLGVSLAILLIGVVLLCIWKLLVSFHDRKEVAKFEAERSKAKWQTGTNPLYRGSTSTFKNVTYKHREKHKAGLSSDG

| Binder | Ki [1] | EC50 [2] | EC50 [3] | EC50 [4] | EC50 [5] |
| --- | --- | --- | --- | --- | --- |
| CFETLRGDLRILSILR[Pra]QNL[Lys(N3)]KELQD-NH2 (triazole 17-21) [peptide 5a] | 1.7 nM |  |  |  |  |
| C(maleimide‑NOTA)FETLRGDLRILSILR[Pra]QNL[Lys(N3)]KELQD-NH2 (triazole 17-21) [5a-NOTA conjugate] | 2.3 nM |  |  |  |  |
| C(maleimide‑IRDye 800CW)FETLRGDLRILSILR[Pra]QNL[Lys(N3)]KELQD-NH2 (triazole 17-21) [5a-IRDye conjugate] |  | 0.65 nM | 1.9 nM | 2.8 nM | 0.9 nM |
